Positions count from the first letter of the chain named. Each block holds one binder with its values, some of them ahead of it.
Columns and labels:
[1] = molecular target: T1, full-length human TIGIT on cells (human, UniProt Q495A1 22-244); experiment: FACS titration on CHO-hTIGIT cells, PE goat anti-mouse IgG
T1 construct: whole, on cells; The same protein is used for CHO-hTIGIT, PBMC and NK92-hTIGIT; the cells are named under assay; also called CHO-hTIGIT; hTIGIT
T1 sequence (looked up): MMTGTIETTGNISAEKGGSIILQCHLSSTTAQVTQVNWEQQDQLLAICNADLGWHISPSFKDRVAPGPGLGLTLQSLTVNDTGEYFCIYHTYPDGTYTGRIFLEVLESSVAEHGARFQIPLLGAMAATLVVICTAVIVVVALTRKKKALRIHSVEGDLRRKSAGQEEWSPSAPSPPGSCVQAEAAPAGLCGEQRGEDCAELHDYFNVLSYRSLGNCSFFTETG
Protocol: (§1) The CHO-engineered cells CHO-hTIGIT cells recombinantly expressing full-length human TIGIT to be detected were counted, centrifuged at 300 g for 5 min, resuspended in an FCM buffer and cell density was adjusted to 4E+06 cell/mL for later use. A sample to be detected (including a positive control antibody and a mouse monoclonal antibody) was diluted with the FCM buffer to 20 μg/mL, and then the FCM buffer was used to perform 3× serial dilutions of 12 concentration points; and the isotype control antibody was diluted with the FCM buffer to 20 μg/mL. According to an experimental design, in each well, 50 μL of the antibody and 50 μL of the cell (the amount of each cell added into a 96-well V-shaped plate being 2E+05 cells/well) were respectively added in the 96-well V-shaped plate; and incubation in dark was performed on ice for 30 min. Centrifugation (300 g/5 min) was performed; supernatant was discarded; 200 μL of the FCM buffer was added for washing once; centrifugation (300 g/5 min) was performed; and the supernatant was discarded. […] Centrifugation (300 g/5 min) was performed; supernatant was discarded; 200 μL of the FCM buffer was added once for washing once; centrifugation (300 g/5 min) was performed; and the supernatant was discarded. 100 μL of the 1×PBS was added for resuspending, and on-machine detection was performed.

[2] = molecular target: T2, human Tigit extracellular domain recombinant protein hTigit-his (self-produced) (human, UniProt Q495A1 22-141); experiment: BLI (ForteBIO QKe), hTigit-his on anti-Penta-HIS sensor, antibody in solution
T2 construct: extracellular domain; Self-produced; used in the KD analysis of Embodiment 4; also called human Tigit recombinant protein; not shown: his tag
T2 sequence (looked up): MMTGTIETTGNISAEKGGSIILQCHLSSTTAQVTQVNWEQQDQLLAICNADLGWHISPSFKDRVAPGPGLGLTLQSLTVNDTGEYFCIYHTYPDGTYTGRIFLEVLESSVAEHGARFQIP
Protocol: Binding kinetic constant analysis was performed on an anti-hTigit antibody and hTigit with an MD ForteBIO QKe platform.

hTIGIT-hFc [3] = molecular target: T3, hTIGIT-hFc (human, UniProt Q495A1 22-141); experiment: FACS blocking on U2-OS cells; second row of the table; unit from the y axis
T3 construct: also called antigen protein hTIGIT-hFc; human TIGIT recombinant protein carrying a human Fc tag; not shown: human Fc tag
T3 sequence (looked up): T2 sequence (looked up)
Protocol: (§2) U2-OS cells to be detected (human osteosarcoma cells, naturally and highly expressing PVR and CD112 by means of detection) were counted; centrifugated at 300 g for 5 min; resuspended with an FCM buffer; and cell density was adjusted to 4E+06 cell/mL for later use. […] According to an experimental design, in each well, 50 μL of the antigen protein and 50 μL of the cell (the volume of each cell added into a 96-well V-shaped plate being 2E+05 cell/well) were respectively added in the 96-well V-shaped plate; and incubation was performed in dark on ice for 30 min. Centrifugation (300 g/5 min) was performed; supernatant was discarded; 200 μL of the FCM buffer was added for washing once; centrifugation (300 g/5 min) was performed; and the supernatant was discarded. The antibody was added to the 96-well V-shaped plate (in 100 μL/well); and incubation was performed in dark on ice for 30 min. Centrifugation (300 g/5 min) was performed; supernatant was discarded; 200 μL of the FCM buffer was added for washing once; centrifugation (300 g/5 min) was performed; and the supernatant was discarded. Secondary antibodies (APC anti-human IgG Fc, 1:500 dilution) were added to the 96-well V-shaped plate (in 100 μL/well); and incubation was performed in dark on ice for 30 min. Centrifugation (300 g/5 min) was performed; supernatant was discarded; 200 μL of the FCM buffer was added for washing once; centrifugation (300 g/5 min) was performed; and the supernatant was discarded. 100 μL of the 1×PBS was added for resuspending, and on-machine detection was performed.

hTIGIT-hFc [4] = molecular target: T3, hTIGIT-hFc; experiment: FACS blocking: hTIGIT-hFc bound on CHO-hCD112 cells, then antibody, APC anti-human IgG Fc; blocked partner CD112; unit from the x axis Log[µg/mL]
Protocol: as §2, with “The CHO-engineered cell CHO-hCD112” for “U2-OS”, “recombinantly” for “to be detected (human osteosarcoma cells, naturally and highly”, “full-length human” for “PVR and”, “CD112” for “CD112 by means of detection)”

[5] = molecular target: T1, full-length human TIGIT on cells; experiment: FACS titration on CHO-hTIGIT cells; span of the fitted curve, unit from the y axis
Protocol: as §1

[6] = molecular target: T1, full-length human TIGIT on cells; experiment: FACS titration on CHO-hTIGIT cells; table under the plot, unit taken from the x axis Log[nM]
Protocol: as §1

EC50 [1]: 0.197 nM | Kd [2]: 0.0605 nM | Span [5]: 21000 MFI-PE | EC50 [6]: 0.256 nM | IC50 (hTIGIT-hFc [4]): 0.143 µg/mL
B2: Tigit-5 mouse monoclonal antibody (antibody, V domains shown)
VH: QVQLQQPGAELVRPGASVKLSCKASGYSFTSYWMNWVKQRPGQGLEWIGMIRPSDSETRLNQMFKDKATLTVDKSSSTAYMQLSSPTSDDSAVYYCAGIHDYGHGAYWGQGTLVTVSA
VL: DIQMIQSPASLSVSVGETVTITCRASENIYSNLAWYQQKQGKSPQLLVYAASHLPDGVPSRFSGSGSGTQYSLKINSLQSEDFGSYYCQHFWGTPRTFGGGTKLEIKR
notes: Mouse monoclonal antibody from hybridoma

EC50 [1]: 0.452 nM | Kd [2]: 0.172 nM
B3: 14Tigit-1-1 mouse monoclonal antibody (antibody, V domains shown)
VH: DVQLQESGPGLVKPSQSLSLTCTVTGYSITSDYAWNWIRQFPGNKLEWMGYISYSGSTRSNPSLKSRISITRDTSKNQFFLQLNSMTAEDTATYYCGGWEVRNYYAMDYWGQGTSVTVSS
VL: DIVMTQSHKFMSTSVGDRVSITCKASQHVSTAVAWYQQKPGQSPKLLIYSASYRYTGVPDRFTGSGSGTDFTFTISSVQAEDLAVYYCQQHYNTPWTFGGGTKLEIKR
notes: as for B2

EC50 [1]: 0.388 nM | Kd [2]: 0.155 nM | Span (row head not given) (hTIGIT-hFc [3]): 585 MFI-APC | Span [5]: 30600 MFI-PE | EC50 [6]: 0.31 nM | IC50 (hTIGIT-hFc [4]): 0.196 µg/mL
B5: 3Tigit-29 mouse monoclonal antibody (antibody, V domains shown)
VH: EVQLQQSGPELVKPGASVKISCKASGYTFTDYNMHWVKQSLGKSLEWIGYVNSFNGNTGYSQKFKSKVTLTVDRSSRTAYMDLRSLTSEDSAVFYCARSSRGGFAYWGQGTLVTVSA
VL: QIVLTQSPAIMSASPGEKVTMTCSASSSVSYMHWYQQKSGTSPKRWIYDTSKLASGVPARFSGSVSGTSYSLTISSMEAEDAATYYCQQWSSNSLTFGAGTKLELKR
notes: as for B2

The remaining lines, values behind:

B1: 3Tigit-12 mouse monoclonal antibody (antibody, V domains shown)
VH: QVQLQQSGAELVRPGTSVKMSCKAAGYTFTNYWIGWVKQRPGHGLEWIGDIYPGGGYTNYDEKFKGKATLTADTSSRTAYMQLSSLTSEDSAIYHCVNGGYGSTYGYFDVWGAGTTVTVSS
VL: DIVMSQSPSSLPVSVGEKVTMSCKSSQSLLFSSDQKNYLAWYQQKPGQSPKLLIYWASTRESGVPDRLTGSGSGTDFTLTISSVKAEDLAVYYCQQYHKYPFTFGGGTKLEIKR
notes: as for B2
EC50 [1]: 0.473 nM | Kd [2]: 0.119 nM | Span (row head not given) (hTIGIT-hFc [3]): 555 MFI-APC | IC50 (hTIGIT-hFc [4]): 0.191 µg/mL

B4: 3Tigit-16 mouse monoclonal antibody (antibody, V domains shown)
VH: EVQLQQSGPELVKPGASVKMSCKASGFTFTDYFMDWVKQSRGASFEWIGRLNPNNGRTSYNQKFKGKATLTVDKSSSTAYMELNSLTSEDSAVYYCARGDLGRWYFDVWGAGTTVTVSS
VL: B5 VL with A59T, V65G, T84S, Y86F
notes: as for B2
EC50 [1]: 0.383 nM | Kd [2]: 0.202 nM | Span (row head not given) (hTIGIT-hFc [3]): 580 MFI-APC | Span [5]: 34600 MFI-PE | EC50 [6]: 0.294 nM | IC50 (hTIGIT-hFc [4]): 0.265 µg/mL

Reference: patent US20240002500A1 (GUANGDONG FAPON BIOPHARMA, published 2024)
